Measurements reported in PMC7614769, “Structural basis for Fc receptor recognition of immunoglobulin M” (Nature structural & molecular biology, 2023).

Biological target: pentameric IgM-Fc core containing Cμ4, Cμ3 and the J chain (human, UniProt P01871 106-433; P01591 23-159, N-linked glycosylation at Asn563)
Assay: BLI; FcμR (20 μg/ml) captured on AMC (anti-mouse IgG-Fc capture) biosensors by the anti-FcμR antibody RR-16; full-length or proteolysed IgM 0.08-10 nM in solution; PBS, 0.005% Tween 20, 25 °C; apparent Kd from response against IgM concentration, 1:1 binding model
Conditions: both partners purified

Kd: 0.7 ± 0.1 nM
B1: human FcμR ectodomain (receptor, UniProt O60667 17-251, looked up)
chain: LRILPEVKVEGELGGSVTIKCPLPEMHVRIYLCREMAGSGTCGTVVSTTNFIKAEYKGRVTLKQYPRKNLFLVEVTQLTESDSGVYACGAGMNTDRGKTQKVTLNVHSEYEPSWEEQPMPETPKWFHLPYLFQMPAYASSSKFVTRVTTPAQRGKVPPVHHSSPTTQITHRPRVSRASSVAGDKPRTFLPSTTASKISALEGLLKPQTPSYNHHTRLHRQRALDYGSQSGREGQG
notes: FcμR, human, ectodomain; Full-length human FcμR has 390 aa; 251 aa are extracellular: 17-aa signal peptide, 107-aa Ig-like domain, 127-aa stalk; Only the Ig-like domain is resolved in the cryo-EM maps; also called TOSO; FAIM3; source: bought: R&D, Catalog 9494-MU-050, lyophilized, suspended in PBS
